{"source": "paper PMC8053116", "binders": {"B1": {"name": "arginyl-tRNA synthetase, full-length (enzyme)", "chain": "MDVLVSECSARLLQQEEEIKSLTAEIDRLKNCGCLGASPNLEQLQEENLKLKYRLNILRKSLQAERNKPTKNMINIISRLQEVFGHAIKAAYPDLENPPLLVTPSQQAKFGDYQCNSAMGISQMLKTKEQKVNPREIAENITKHLPDNECIEKVEIAGPGFINVHLRKDFVSEQLTSLLVNGVQLPALGENKKVIVDFSSPNIAKEMHVGHLRSTIIGESISRLFEFAGYDVLRLNHVGDWGTQFGMLIAHLQDKFPDYLTVSPPIGDLQVFYKESKKRFDTEEEFKKRAYQCVVLLQGKNPDITKAWKLICDVSRQELNKIYDALDVSLIERGESFYQDRMNDIVKEFEDRGFVQVDDGRKIVFVPGCSIPLTIVKSDGGYTYDTSDLAAIKQRLFEEKADMIIYVVDNGQSVHFQTIFAAAQMIGWYDPKVTRVFHAGFGVVLGEDKKKFKTRSGETVRLMDLLGEGLKRSMDKLKEKERDKVLTAEELNAAQTSVAYGCIKYADLSHNRLNDYIFSFDKMLDDRGNTAAYLLYAFTRIRSIARLANIDEEMLQKAARETKILLDHEKEWKLGRCILRFPEILQKILDDLFLHTLCDYIYELATAFTEFYDSCYCVEKDRQTGKILKVNMWRMLLCEAVAAVMAKGFDILGIKPVQRM"}}, "biological_target": "multi-tRNA synthetase complex without ArgRS and GlnRS (human (endogenous in HEK 293T)) (UniProt P56192)", "sequence (P56192 whole entry, looked up, one chain of several)": "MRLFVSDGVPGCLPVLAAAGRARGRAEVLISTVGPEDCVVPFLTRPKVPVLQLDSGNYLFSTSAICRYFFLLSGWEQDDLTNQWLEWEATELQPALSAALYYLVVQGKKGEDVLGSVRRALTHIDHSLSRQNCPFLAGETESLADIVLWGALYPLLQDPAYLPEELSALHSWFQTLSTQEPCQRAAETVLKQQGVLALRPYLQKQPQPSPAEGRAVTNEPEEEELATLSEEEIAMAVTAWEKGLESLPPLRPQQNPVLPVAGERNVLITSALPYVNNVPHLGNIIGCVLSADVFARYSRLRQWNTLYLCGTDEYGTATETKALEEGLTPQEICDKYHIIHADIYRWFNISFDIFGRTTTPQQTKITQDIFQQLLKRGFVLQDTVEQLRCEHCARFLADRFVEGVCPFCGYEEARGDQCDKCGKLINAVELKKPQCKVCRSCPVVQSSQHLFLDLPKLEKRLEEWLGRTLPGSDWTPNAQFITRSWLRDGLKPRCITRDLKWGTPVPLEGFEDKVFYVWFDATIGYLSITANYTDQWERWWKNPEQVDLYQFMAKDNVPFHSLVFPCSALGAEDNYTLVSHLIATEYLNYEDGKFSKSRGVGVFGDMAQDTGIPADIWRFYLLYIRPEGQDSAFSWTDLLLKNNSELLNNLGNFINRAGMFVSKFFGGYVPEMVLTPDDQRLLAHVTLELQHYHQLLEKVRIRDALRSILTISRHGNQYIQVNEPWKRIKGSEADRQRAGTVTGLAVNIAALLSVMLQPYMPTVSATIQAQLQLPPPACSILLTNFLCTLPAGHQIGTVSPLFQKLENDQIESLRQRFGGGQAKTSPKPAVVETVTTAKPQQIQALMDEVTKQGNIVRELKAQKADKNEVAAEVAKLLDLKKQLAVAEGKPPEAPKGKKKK", "assay": "SEC; lysate of wildtype 293T cells (20 mM Tris-HCl pH 7.5, 1 mM EDTA, 150 mM NaCl, 0.1% IGEPAL CA-630) on Superdex 200 in Dulbecco's PBS; 1 ml fractions analysed by western blot; intact MSC in fractions 10-12", "data": [{"binder": "B1", "values": [{"measurement": "percent of ArgRS not bound to the MSC", "result": 40, "unit": "%"}]}]}
